Measured values as given in the RNAGym collection of RNA variant scans (doi:10.7554/elife.80360).

B1: CPEB3 Ribozyme (parent)
chain: GGGGGCCACAGCAGAAGCGUUCACGUCGCGGCCCCUGUCAGAUUCUGGUGAAUCUGCGAAUUCUGCUGU

Variants of: B1
Assay: self-cleavage, relative activity (ratio to wild type); higher = more cleavage; co-transcriptional

First: C24A C29A
Second: C24A C29U
The self-cleavage of the first is higher: 0.27 for the first, 0.158 for the second.

Compared with C24A C29G, A23U G65C is higher in self-cleavage: 0.166 for the first, 0.698 for the second.

Compared with A23U G65A, C24G C57G is lower in self-cleavage: 0.885 for the first, 0.13 for the second.

First: C24G C57A
Second: C24G C57U
The self-cleavage of the first is lower: 0.172 for the first, 0.241 for the second.

Compared with C24A C66A, C24A C66U is higher in self-cleavage: 0.397 for the first, 0.651 for the second.

Going from C24A C66G to C24A G50C, the self-cleavage rises from 0.493 to 0.665.

Going from C24A G50A to C24G C63G, the self-cleavage falls from 0.719 to 0.199.

Compared with C24G C63A, C24G C63U is higher in self-cleavage: 0.237 for the first, 0.339 for the second.

Going from C24U A51C to C24U G30A, the self-cleavage falls from 0.782 to 0.389.

Going from C24U G30U to A23U U26C, the self-cleavage rises from 0.199 to 1.04.

Going from A23U U26G to A23U U26A, the self-cleavage falls from 0.92 to 0.914.

Compared with C24A G28C, C24A G28A is higher in self-cleavage: 0.129 for the first, 0.187 for the second.

Going from C24A G28U to A23U C34G, the self-cleavage rises from 0.127 to 0.819.

Compared with A23U C34A, C24A C34A is lower in self-cleavage: 0.956 for the first, 0.262 for the second.

First: C24A C34G
Second: C24U C27U
The self-cleavage of the first is higher: 0.227 for the first, 0.193 for the second.

First: C24U C27G
Second: A23U C66U
The self-cleavage of the first is lower: 0.189 for the first, 0.964 for the second.

Compared with A23U C66G, C24A U69A is lower in self-cleavage: 0.848 for the first, 0.825 for the second.

Going from C24A U69G to A23U C57A, the self-cleavage falls from 0.866 to 0.288.

Going from A23U C57U to C24G U38C, the self-cleavage rises from 0.28 to 0.413.

Compared with C24G U38G, C24A U67A is higher in self-cleavage: 0.215 for the first, 0.751 for the second.

First: C24A U67G
Second: C24A C57G
The self-cleavage of the first is higher: 0.693 for the first, 0.219 for the second.

Going from C24A C57U to A23U C39G, the self-cleavage rises from 0.248 to 1.02.

Going from A23U C39A to A23U C39U, the self-cleavage rises from 0.87 to 0.921.

First: C24A U36A
Second: C24A U36G
The self-cleavage of the first is lower: 0.173 for the first, 0.205 for the second.

First: C24G A60U
Second: C24G A60C
The self-cleavage of the first is higher: 0.226 for the first, 0.205 for the second.

First: C24G U53G
Second: C24G U53C
The self-cleavage of the first is lower: 0.177 for the first, 0.235 for the second.

First: C24G U53A
Second: A23U G68A
The self-cleavage of the first is lower: 0.339 for the first, 0.989 for the second.

Compared with A23U G68U, A23U G68C is lower in self-cleavage: 1.03 for the first, 1.01 for the second.

Going from A23G U69G to A23G U69A, the self-cleavage falls from 1.04 to 0.974.

Compared with A23G U69C, A23U U67G is lower in self-cleavage: 1.06 for the first, 0.979 for the second.

Compared with A23U U67C, A23U U67A is lower in self-cleavage: 1 for the first, 0.975 for the second.

Going from C24A C27G to C24A C27A, the self-cleavage rises from 0.105 to 0.16.

First: A23U U44C
Second: A23U U44G
The self-cleavage of the first is lower: 0.869 for the first, 0.882 for the second.

Compared with A23U U44A, A23G U62G is lower in self-cleavage: 0.963 for the first, 0.75 for the second.

Compared with A23G U67C, A23G U67A is higher in self-cleavage: 0.925 for the first, 1.03 for the second.

Going from A23G U67G to C24U C35U, the self-cleavage falls from 0.992 to 0.579.

First: C24A C45A
Second: C24A C45G
The self-cleavage of the first is higher: 0.712 for the first, 0.677 for the second.

First: C24A C45U
Second: A23U G50C
The self-cleavage of the first is lower: 0.751 for the first, 0.978 for the second.

First: A23U G50A
Second: A23U G50U
The self-cleavage of the first is higher: 1.01 for the first, 0.958 for the second.

Compared with A23U C33A, A23U C33G is lower in self-cleavage: 0.876 for the first, 0.773 for the second.

First: C24G U64G
Second: C24G U64C
The self-cleavage of the first is higher: 0.338 for the first, 0.315 for the second.

For A23U U64A, the self-cleavage was 0.943.
